The source of these data is US9273140B2, “Antibody for detecting DNA damage in cells utilizing cell membrane surface antigen Ly6D” (FUJITA HEALTH UNIVERSITY, priority 2012, dated 2016).

In experiment [1] the test system is LY6D expression on the surfaces of MCF10A cells. Briefly: LY6D expression in MCF10A cells incubated with DNA-damaging stressors, by FCM. It is filed as cell-based. The note with it: contact with DNA-damaging stressor (MMC 300 nM; hydroxyurea 2 mM), FIG. 4. How it is done: MCF10A cells were incubated with DNA-damaging stressor (MMC: 300 nM), carboplatin, hydroxyurea (2 mM), or aphidicolin and relative LY6D expression was determined by FCM.
After the growth to confluence, the cells were irradiated at 10Gy (3 mA/50 kV) in cabinet-type X-ray apparatus (SOFRON, soft X-ray inversion system). At a desired timing after irradiation, the cells were harvested.
The FCM analysis was carried out according to the method reported previously (Kurosawa et al., 2009, Immunol. Meth. 351: 1-12). Reactivity of the obtained anti-Ly6D antibodies was examined using the Ly6D expression cell line, namely A431™ (cell line human squamous carcinoma) (CML ATCC CCL-243). The A431 cells were recovered by centrifugation. The recovered cells were washed once with PBS and then suspended in FACS Buffer (PBS containing 1% BSA, 2 mM EDTA, and 0.1% NaN3) to result in 1×10^6 cells/mL. The cell suspension (100 μL) was dispensed on a 96-well V-bottomed plate (Costar 3897). The Ly6D antibodies were adjusted to a concentration of 0.02 to 2 μg/mL using FACS Buffer. The prepared antibody solution (100 μL) was added to the cells, followed by incubation at 4° C. for 1 hour. The cells were washed twice with FACS buffer. Then, 100 μL of ALEXAFLUOR-anti-human IgG™ (fluorescent antibody) (Invitrogen) diluted 750-fold with FACS Buffer was added to the cells, followed by another incubation at 4° C. for 1 hour. The cells were washed with FACS Buffer twice by centrifugation and set in HTS of FACS Calibur (BD) for measurement of FL1 fluorescence intensity of each well.
It is well known that X-ray irradiation causes damage to DNA, which results in DNA double-strand breaks. A variety of chemical reagents also cause DNA damage stress in cells. Therefore, the influence of camptothecin (CPT) on the LY6D expression in MCF10A cells was examined. […] Therefore, the induction of LY6D expression on the surfaces of MCF10A cells was confirmed to be a common phenomenon due to DNA damage stress.

The next experiment concerns LY6D expression. The note with it: Rubinfeld et al., 2006; cited from earlier work.
In a further experiment the test system is MCF10A cells. Briefly: Selection of monoclonal antibodies by cell ELISA, FCM and confocal laser microscopy on X-ray-irradiated and non-irradiated cells. It is filed as binding. How it is done:
X-ray-irradiated MCF10A cells (black bars) and non-irradiated MCF10A cells (gray bars) were subjected to ELISA using six monoclonal antibodies (A: cell ELISA). X-ray-irradiated cells (pink) and non-irradiated cells (green) were incubated with six monoclonal antibodies and subjected to FCM, and non-irradiated cells incubated with PBS were used as a negative control (purple) (B: FCM). X-ray-irradiated cells and non-irradiated cells were stained with the E33-139 monoclonal antibody (green) and DAPI (blue), respectively, and examined using a confocal laser microscope (C: immunofluorescence confocal laser microscopy).
X-ray-irradiated cells and non-irradiated cells were prepared, and antibodies specific to the irradiated cells were screened for by cell ELISA. That is, reactivity of antibody to both cells was examined by ELISA. A blocking solution (5% skim milk/0.05% NaN3/PBS) was added at 200 μL/well to both cells, followed by blocking at 37° C. for 2 hours. The blocking solution was removed and the cells were washed with PBS. The supernatant of the above antibody expression culture was added at 100 μL/well, followed by reaction at 37° C. for 1 hour. The resultant was washed five times with PBS. Rabbit anti-cp3 (1 μg/mL) diluted with PBS/0.05% Tween 20 was added at 100 μL/well, followed by reaction at 37° C. for 1 hour. The resultant was washed five times with PBS. Anti-Rabbit IgG (H+L)-HRP diluted 2000-fold with PBS/0.05% Tween 20 was further added at 100 μL/well, followed by reaction at 37° C. for 1 hour. The resultant was washed five times with PBS. […] Then, the absorbance at 492 nm was measured by SPECTRAmax340PC (Molecular Devices). Antibodies showing obvious positive reactivity specific to only the irradiated cells were selected and DNA sequences of the phages were analyzed. […]
The FCM analysis was carried out according to the method reported previously (Kurosawa et al., 2009, Immunol. Meth. 351: 1-12). […] The cells were washed with FACS Buffer twice by centrifugation and set in HTS of FACS Calibur (BD) for measurement of FL1 fluorescence intensity of each well. […]
A general note: In an ELISA, binding on a coated surface is turned into a signal by an enzyme label.

Another experiment deals with T1, LY6D (Homo sapiens, UniProt Q14210).
T1 construct: LY6D was identified by the precipitate derived from the X-ray-irradiated cells; endogenous in cells; host or cells: MCF10A cells (X-ray-irradiated and non-irradiated); FaDu cells
T1 sequence (Q14210 21-98 limits assumed): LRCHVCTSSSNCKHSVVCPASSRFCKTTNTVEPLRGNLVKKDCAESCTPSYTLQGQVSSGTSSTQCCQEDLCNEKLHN
Briefly: Immunoprecipitation, western blot and mass spectrometry to identify the antigen recognized by the antibody. It is filed as binding. Particulars: for 14 kDa band in western blot of immunoprecipitate: FIG. 2A. How it is done: After biotinylation, the membrane proteins of the X-ray-irradiated MCF10A cells (right) and non-irradiated MCF10A cells (left) were solubilized and subjected to immunoprecipitation using the E33-139 monoclonal antibody, the product was separated by SDS-PAGE, and western blot was performed with HRP-conjugated streptavidin (A: western blot). MCF10A cells treated as described above were digested with PI-PLC, the resultant was centrifuged, and cell pellets (P) and the supernatant (S) subjected to PI-PLC treatment were separately immunoprecipitated (B: western blot). FaDu cells were treated with LY6D siRNA or control siRNA and analyzed by FCM using the E33-139 monoclonal antibody (black line: control siRNA and the E33-139 monoclonal antibody; dashed line: LY6D siRNA and the E33-139 monoclonal antibody; gray: control siRNA without the E33-139 monoclonal antibody (C: FCM). The experiment shown in FIG. 2B was carried out using FaDu cells (D: western blot). Solubilized FaDu cells were subjected to IP using the E33-139 monoclonal antibody and the product was separated by SDS-PAGE (left: western blot using anti-hLY6D Ab (polyclonal Ab, commercial product); right: silver stained gel) (E: western blot).
Conditions of immunoprecipitation were set as previously reported (Kurosawa et al., 2009, J. Immunol. Meth. 351: 1-12). […] The concentrate was analyzed by LC/MS.
Immunoprecipitation (IP) was performed to identify an antigen recognized by the E33-139 antibody. […] They were determined to be detected in precipitates in a nonspecific manner because they are abundant in the cytoplasm. […] Therefore, LY6D was determined to be a promising candidate as an antigen recognized by E33-139.
It has been reported that LY6D is abundantly expressed in a large amount in squamous cell carcinoma of head and neck (Quak et al., 1990, Am. J. Pathol. 136: 191-197). […] Before digestion with PI-PLC, a 14-kDa band was detected by the western blot method. […] The resulting blots were detected using a commercially available anti-human LY6D antibody. […]
A general note: Immunoblotting shows a protein as a band on a membrane.

As to `C[C@@]1(CO)[C@H](O)CC[C@@]2(C)[C@H]1CC[C@H]1C[C@@H]3C[C@@]12CC[C@]3(O)CO` [aphidicolin], the “LY6D expression on the surfaces of MCF10A cells” value (“LY6D expression on the surfaces” for short) in experiment [1] is “induced”.

With `CO[C@@]12[C@H](COC(N)=O)C3=C(C(=O)C(C)=C(N)C3=O)N1C[C@@H]1N[C@@H]12` [mitomycin C], the “LY6D expression on the surfaces” value in experiment [1] is recorded as “induced”.

Take `N.N.O=C([O-])C1(C(=O)[O-])CCC1.[Pt+2]` [carboplatin]: the “LY6D expression on the surfaces” value in experiment [1] is on record as “induced”.

On to `NC(=O)NO` [hydroxyurea], for which the “LY6D expression on the surfaces” value in experiment [1] is “induced”.

With `CCc1c2c(nc3ccc(OC(=O)N4CCC(N5CCCCC5)CC4)cc13)-c1cc3c(c(=O)n1C2)COC(=O)[C@]3(O)CC` [irinotecan], the “LY6D expression after chemotherapy treatment” value with LY6D expression was “significantly enhanced”.

B1: E33-139: human phage antibody (scFv) against LY6D; sequence SEQ ID NOS: 1 and 2, CDRs SEQ ID NOS: 3 to 8 (protein)
scFv: MAEVQLVESGGGLVQPGRSLRLSCAASGFTFDDYAMHWVRQAPGKGLEWVSGISWNSGSIGYADSVKGRFTISRDNAKNSLYLQMNSLRAEDTALYYCAKTGILDAFDIWGQGTTVTVSRGGGGSGGGGSGGGGSMAQSVLTQPPSVSGAPRQTVTISCSGSSSNIGQNSVTWYQRLPGEAPKLLIYYDDLLHSGVSDRFSGSKSGTSASLAISGLQSEDEAEYYCASWDDSLKGPVFGGGTKLTVLGQPKAAPSVTLFPPSSEELQANKATLVCLISDFYPGAVTVAWKADSSPVKAGVETTTPSKQSNNKYAASSYLSLTPEQWKSHKSYSCQVTHEGSTVEKTVAPTECSAR
modifications: human
Take B1: the “reactivity to MCF10A cells after X-ray irradiation” value in the experiment with MCF10A cells (X-ray-irradiated MCF10A cells (10Gy)) is “increased reactivity”. For the same molecule, the “binding to molecules on the surfaces of X-ray-irradiated cells, confocal laser microscope analysis” value in the experiment with MCF10A cells (X-ray-irradiated MCF10A cells, FIG. 1C) was “consistently and strongly binds”. Further, the “reactivity to MCF10A cells before X-ray irradiation” value with MCF10A cells (non-irradiated MCF10A cells) is listed as “no reactivity”. Also, the “antigen recognized by the antibody” value with LY6D (IP, MS, PI-PLC, siRNA and anti-human LY6D western blot) is reported as “antigen protein 139 is LY6D”. The “14 kDa band in western blot of immunoprecipitate” value is “a prominent band was observed” with LY6D (samples from X-ray-irradiated MCF10A cells) and “slightly observed” in the experiment with LY6D (samples from non-irradiated MCF10A cells).
